Non-standard residues stand in square brackets, D forms with d. tBuAla = CC(C)(C)C[C@H](N)C(=O)O; 4Pal = N[C@@H](Cc1ccncc1)C(=O)O; dHyp = O=C(O)[C@H]1C[C@H](O)CN1; Cha = N[C@@H](CC1CCCCC1)C(=O)O; Iva = CC[C@](C)(N)C(=O)O; Aib = CC(C)(N)C(=O)O

Test [1] has as its target human Y2 receptor (human) (UniProt P49146). The test is described as follows: cell-based or functional assay.
The target is the same in test [2]. The test is described as follows: RBA: displacement of [125I]-PYY from hY2R/CHO membranes. (Loss of bound radioactivity is the signal in a displacement assay; it reports binding, not function.)

Sequence of human Y2 receptor (human) (P49146 whole entry): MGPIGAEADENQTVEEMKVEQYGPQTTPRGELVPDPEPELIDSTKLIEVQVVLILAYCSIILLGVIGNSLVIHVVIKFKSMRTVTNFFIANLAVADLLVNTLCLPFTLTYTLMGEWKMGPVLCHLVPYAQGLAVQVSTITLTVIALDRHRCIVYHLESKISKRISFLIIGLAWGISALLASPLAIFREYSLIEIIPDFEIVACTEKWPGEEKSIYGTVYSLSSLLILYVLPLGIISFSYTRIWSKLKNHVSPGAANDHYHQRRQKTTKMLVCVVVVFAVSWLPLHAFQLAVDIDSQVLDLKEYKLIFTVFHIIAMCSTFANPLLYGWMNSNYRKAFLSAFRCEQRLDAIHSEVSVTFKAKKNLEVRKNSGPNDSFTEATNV

As to “4-Imidazolecarbonyl-[Aib24,28,31, Iva25, Pya(4)26, Cha27,36, Lys30]-PYY(23-36) (peptide)”, the GBA EC50 Ratio ([35S]GTPγS binding) (EC50 compound/EC50 PYY(3-36)) in test [1] stood at 1.7. In addition, in test [2], the IC50 Ratio (IC50 compound/IC50 PYY(3-36)) was 1.9.
Take “(2-amino-2-oxoethyl)carbamoyl-[D-Pro24, Pya(4)26, Cha27,36, Aib28,31, Lys30]-PYY(23-36) (peptide)”: in test [1], the GBA EC50 Ratio ([35S]GTPγS binding) (EC50 compound/EC50 PYY(3-36)) is 0.74. In addition, the IC50 Ratio (IC50 compound/IC50 PYY(3-36)) in test [2] was 1.2.
On the same counts, the results for “Ac-[D-Pro24, Pya(4)26, Ala(4Pip)27, Aib28,31, Lys30, Cha36]-PYY(23-36) former peak (peptide)” are 11 and 17.
For “Ac-[D-Hyp24, Iva25,28, Pya(4)26, Cha27,36, Lys30, Aib31]-PYY(23-36) (peptide)”, the GBA EC50 Ratio ([35S]GTPγS binding) (EC50 compound/EC50 PYY(3-36)) in test [1] came to 1. In test [2], the IC50 Ratio (IC50 compound/IC50 PYY(3-36)) stood at 0.86.
For “Ac-[D-Pro24, Pya(4)26, Cha27,36, D-Iva28,31, Lys30]-PYY(23-36) (peptide)”, the GBA EC50 Ratio ([35S]GTPγS binding) (EC50 compound/EC50 PYY(3-36)) in test [1] worked out at 1.6. For the same molecule, the IC50 Ratio (IC50 compound/IC50 PYY(3-36)) in test [2] came out at 0.7.
Regarding “Ac-[D-Pro24, Arg(Me)25, Pya(4)26, Cha27,36, Aib28,31, Lys30]-PYY(23-36) (peptide)”, the GBA EC50 Ratio ([35S]GTPγS binding) (EC50 compound/EC50 PYY(3-36)) in test [1] was 1.3. Further, in test [2], the IC50 Ratio (IC50 compound/IC50 PYY(3-36)) was determined as 1.1.
Consider “4-Imidazolecarbonyl-[D-Hyp24, Iva25, Pya(4)26, Cha27,36, αMePhe28, Lys30, Aib31]-PYY(23-36) (peptide)”, for which the GBA EC50 Ratio ([35S]GTPγS binding) (EC50 compound/EC50 PYY(3-36)) in test [1] turned out to be 1. For the same molecule, the IC50 Ratio (IC50 compound/IC50 PYY(3-36)) in test [2] stood at 0.65.
Turning to “Ac-[D-Pro24, Abu26, Cha27,36, Aib28,31, Lys30]-PYY(23-36) (peptide)”, the GBA EC50 Ratio ([35S]GTPγS binding) (EC50 compound/EC50 PYY(3-36)) in test [1] was found to be 0.98. Further, the IC50 Ratio (IC50 compound/IC50 PYY(3-36)) in test [2] was found to be 2.3.
As for “(Tetrahydro-2H-pyran-4-yl)carbonyl-[D-Pro24, Pya(4)26, Cha27,36, Aib28,31, Lys30]-PYY(23-36) (peptide)”, in test [1], the GBA EC50 Ratio ([35S]GTPγS binding) (EC50 compound/EC50 PYY(3-36)) worked out at 0.71. Also, the IC50 Ratio (IC50 compound/IC50 PYY(3-36)) in test [2] worked out at 1.1.
On to “Ac-[D-Pro24, Pya(4)26, Ala(4Pip)27, Aib28,31, Lys30, Cha36]-PYY(23-36) later peak (peptide)”, for which the GBA EC50 Ratio ([35S]GTPγS binding) (EC50 compound/EC50 PYY(3-36)) in test [1] worked out at 3.9. Further, the IC50 Ratio (IC50 compound/IC50 PYY(3-36)) in test [2] came to 3.8.
Consider “Ac-[D-Pro24, Pya(4)26, Cha27,36, Iva28, Lys30, Aib31]-PYY(23-36) (peptide)”, for which the GBA EC50 Ratio ([35S]GTPγS binding) (EC50 compound/EC50 PYY(3-36)) in test [1] worked out at 1.2. The IC50 Ratio (IC50 compound/IC50 PYY(3-36)) in test [2] was 0.33.
Consider “3-Carboxypropionyl-[D-Hyp24, Iva25, Pya(4)26, Cha27,36, Leu(Me)28, Lys30, Aib31]-PYY(23-36) (peptide)”, for which the GBA EC50 Ratio ([35S]GTPγS binding) (EC50 compound/EC50 PYY(3-36)) in test [1] was 1.9. For the same molecule, the IC50 Ratio (IC50 compound/IC50 PYY(3-36)) in test [2] was found to be 0.92.
On the same counts, the results for “Ac-[D-Pro24, Pya(4)26, Cha27,36, Aib28,31, Arg(Me)30]-PYY(23-36) (peptide)” are 1.2 and 1.1.
On the same counts, the results for “4-Pyridinecarbonyl-[D-Hyp24, Iva25,28, Pya(4)26, Cha27,36, Lys30, Aib31]-PYY(23-36) (peptide)” are 1.6 and 1.3.
For the molecule “Ac-[D-Pro24, Pya(4)26, Cha27,36, Aib28,31, Hse30]-PYY(23-36) (peptide)”, in test [1], the GBA EC50 Ratio ([35S]GTPγS binding) (EC50 compound/EC50 PYY(3-36)) came out at 5.7. For the same molecule, in test [2], the IC50 Ratio (IC50 compound/IC50 PYY(3-36)) was 5.8.
On the same counts, the results for “[(1S)-1-Carboxy-2-(4-hydroxyphenyl)ethyl]carbamoyl-[D-Pro24, Pya(4)26, Cha27,36, Aib28,31, Lys30]-PYY(23-36) (peptide)” are 1.2 and 0.95.
Regarding “Ac-[D-Pro24, Pya(4)26, Cha27,36, Iva28, Lys30, D-Iva31]-PYY(23-36) (peptide)”, the GBA EC50 Ratio ([35S]GTPγS binding) (EC50 compound/EC50 PYY(3-36)) in test [1] was found to be 0.67. In addition, in test [2], the IC50 Ratio (IC50 compound/IC50 PYY(3-36)) came to 0.36.
On the same counts, the results for “(5-carboxypentyl)carbamoyl-[D-Pro24, Pya(4)26, Cha27,36, Aib28,31, Lys30]-PYY(23-36) (peptide)” are 1.5 and 1.2.
On the same counts, the results for “Isobutanoyl-[D-Pro24, Pya(4)26, Cha27,36, Aib28,31, Lys30]-PYY(23-36) (peptide)” are 0.89 and 0.79.
As to “Ac-[D-Pro24, Har25, Pya(4)26, Cha27,36, Aib28,31, Lys30]-PYY(23-36) (peptide)”, the GBA EC50 Ratio ([35S]GTPγS binding) (EC50 compound/EC50 PYY(3-36)) in test [1] is 1.4. Moreover, the IC50 Ratio (IC50 compound/IC50 PYY(3-36)) in test [2] stood at 0.82.
On the same counts, the results for “Ac-[D-Pro24, Pya(4)26, Cha27,36, Iva28,31, Lys30]-PYY(23-36) (peptide)” are 1 and 0.31.
On the same counts, the results for “Ac-[D-Pro24, Pya(4)26, Cha27,36, D-Iva28, Lys30, Iva31]-PYY(23-36) (peptide)” are 1.1 and 3.4.

B1: Ac-[Glu23, D-Hyp24, Cha27,28,36, Lys30, Aib31]-PYY(23-36) (peptide)
peptide: Ac-E[dHyp]RH[Cha][Cha]NK[Aib]TRQR[Cha]-NH2
SMILES: CC(=O)N[C@@H](CCC(=O)O)C(=O)N1C[C@@H](O)C[C@@H]1C(=O)N[C@@H](CCCNC(=N)N)C(=O)N[C@@H](Cc1c[nH]cn1)C(=O)N[C@@H](CC1CCCCC1)C(=O)N[C@@H](CC1CCCCC1)C(=O)N[C@@H](CC(N)=O)C(=O)N[C@@H](CCCCN)C(=O)NC(C)(C)C(=O)N[C@H](C(=O)N[C@@H](CCCNC(=N)N)C(=O)N[C@@H](CCC(N)=O)C(=O)N[C@@H](CCCNC(=N)N)C(=O)N[C@@H](CC1CCCCC1)C(N)=O)[C@@H](C)O
With B1, the GBA EC50 Ratio ([35S]GTPγS binding) (EC50 compound/EC50 PYY(3-36)) in test [1] came to 1.3. The IC50 Ratio (IC50 compound/IC50 PYY(3-36)) in test [2] came to 0.8.

B2: Ac-[D-Pro24, Pya(4)26, Cha27,36, Aib28,31, Trp30]-PYY(23-36) (peptide)
peptide: Ac-S[dP]R[4Pal][Cha][Aib]NW[Aib]TRQR[Cha]-NH2
SMILES: CC(=O)N[C@@H](CO)C(=O)N1CCC[C@@H]1C(=O)N[C@@H](CCCNC(=N)N)C(=O)N[C@@H](Cc1ccncc1)C(=O)N[C@@H](CC1CCCCC1)C(=O)NC(C)(C)C(=O)N[C@@H](CC(N)=O)C(=O)N[C@@H](Cc1c[nH]c2ccccc12)C(=O)NC(C)(C)C(=O)N[C@H](C(=O)N[C@@H](CCCNC(=N)N)C(=O)N[C@@H](CCC(N)=O)C(=O)N[C@@H](CCCNC(=N)N)C(=O)N[C@@H](CC1CCCCC1)C(N)=O)[C@@H](C)O
Turning to B2, in test [1], the GBA EC50 Ratio ([35S]GTPγS binding) (EC50 compound/EC50 PYY(3-36)) stood at 2.4. In test [2], the IC50 Ratio (IC50 compound/IC50 PYY(3-36)) stood at 2.5.

B3: Ac-[D-Hyp24, Cha27,36, Leu(Me)28, Lys30, Aib31]-PYY(23-36) (peptide)
peptide: Ac-S[dHyp]RH[Cha][tBuAla]NK[Aib]TRQR[Cha]-NH2
SMILES: CC(=O)N[C@@H](CO)C(=O)N1C[C@@H](O)C[C@@H]1C(=O)N[C@@H](CCCNC(=N)N)C(=O)N[C@@H](Cc1c[nH]cn1)C(=O)N[C@@H](CC1CCCCC1)C(=O)N[C@@H](CC(C)(C)C)C(=O)N[C@@H](CC(N)=O)C(=O)N[C@@H](CCCCN)C(=O)NC(C)(C)C(=O)N[C@H](C(=O)N[C@@H](CCCNC(=N)N)C(=O)N[C@@H](CCC(N)=O)C(=O)N[C@@H](CCCNC(=N)N)C(=O)N[C@@H](CC1CCCCC1)C(N)=O)[C@@H](C)O
For the molecule B3, the GBA EC50 Ratio ([35S]GTPγS binding) (EC50 compound/EC50 PYY(3-36)) in test [1] is 0.76. Besides, the IC50 Ratio (IC50 compound/IC50 PYY(3-36)) in test [2] worked out at 0.38.

B4: Ac-[D-Pro24, Cha27,28,36, Iva30, Aib31]-PYY(23-36) (peptide)
peptide: Ac-S[dP]RH[Cha][Cha]N[Iva][Aib]TRQR[Cha]-NH2
SMILES: CC[C@](C)(NC(=O)[C@H](CC(N)=O)NC(=O)[C@H](CC1CCCCC1)NC(=O)[C@H](CC1CCCCC1)NC(=O)[C@H](Cc1c[nH]cn1)NC(=O)[C@H](CCCNC(=N)N)NC(=O)[C@H]1CCCN1C(=O)[C@H](CO)NC(C)=O)C(=O)NC(C)(C)C(=O)N[C@H](C(=O)N[C@@H](CCCNC(=N)N)C(=O)N[C@@H](CCC(N)=O)C(=O)N[C@@H](CCCNC(=N)N)C(=O)N[C@@H](CC1CCCCC1)C(N)=O)[C@@H](C)O
As for B4, the GBA EC50 Ratio ([35S]GTPγS binding) (EC50 compound/EC50 PYY(3-36)) in test [1] was 20. Also, the IC50 Ratio (IC50 compound/IC50 PYY(3-36)) in test [2] came to 43.

B5: Ac-[Glu23, D-Hyp24, Pya(4)26, Cha27,36, Aib28,31, Lys30]-PYY(23-36) (peptide)
peptide: Ac-E[dHyp]R[4Pal][Cha][Aib]NK[Aib]TRQR[Cha]-NH2
SMILES: CC(=O)N[C@@H](CCC(=O)O)C(=O)N1C[C@@H](O)C[C@@H]1C(=O)N[C@@H](CCCNC(=N)N)C(=O)N[C@@H](Cc1ccncc1)C(=O)N[C@@H](CC1CCCCC1)C(=O)NC(C)(C)C(=O)N[C@@H](CC(N)=O)C(=O)N[C@@H](CCCCN)C(=O)NC(C)(C)C(=O)N[C@H](C(=O)N[C@@H](CCCNC(=N)N)C(=O)N[C@@H](CCC(N)=O)C(=O)N[C@@H](CCCNC(=N)N)C(=O)N[C@@H](CC1CCCCC1)C(N)=O)[C@@H](C)O
In the case of B5, in test [1], the GBA EC50 Ratio ([35S]GTPγS binding) (EC50 compound/EC50 PYY(3-36)) is 2.2. The IC50 Ratio (IC50 compound/IC50 PYY(3-36)) in test [2] was determined as 3.4.

B6: Ac-[Glu23, D-Pro24, Pya(4)26, Cha27,36, Aib28,31, Lys30]-PYY(23-36) (peptide)
peptide: Ac-E[dP]R[4Pal][Cha][Aib]NK[Aib]TRQR[Cha]-NH2
SMILES: CC(=O)N[C@@H](CCC(=O)O)C(=O)N1CCC[C@@H]1C(=O)N[C@@H](CCCNC(=N)N)C(=O)N[C@@H](Cc1ccncc1)C(=O)N[C@@H](CC1CCCCC1)C(=O)NC(C)(C)C(=O)N[C@@H](CC(N)=O)C(=O)N[C@@H](CCCCN)C(=O)NC(C)(C)C(=O)N[C@H](C(=O)N[C@@H](CCCNC(=N)N)C(=O)N[C@@H](CCC(N)=O)C(=O)N[C@@H](CCCNC(=N)N)C(=O)N[C@@H](CC1CCCCC1)C(N)=O)[C@@H](C)O
Take B6: the GBA EC50 Ratio ([35S]GTPγS binding) (EC50 compound/EC50 PYY(3-36)) in test [1] is 1.9. Besides, in test [2], the IC50 Ratio (IC50 compound/IC50 PYY(3-36)) is 2.7.
